Experimental data published in the RNAGym collection of RNA variant scans (doi:10.1073/pnas.2313332121).
Variants at the floor of the assay were thinned out.

B1: TPR 5TU (parent)
chain: GGAUCUUCUCGAUCUAACAAAAAAGACAAAUCUGCCACAAAGCUUGAGAGCAUCUUCGGAUGCAGAGGCGGCAGCCUUCGGUGGCGCGAUAGCGCCAACGUUCUCAACUAUGACACGCAAAACGCGUGCUCCGUUGAAUGGAGUUUAUCAUG

Variants of: B1
Test: polymerase ribozyme fitness, log enrichment relative to wild type (log ratio); higher = more active; in vitro selection for triplet polymerase activity
Outline: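 For each subunit of a heterodimeric triplet polymerase ribozyme, a mutant library was built by PCR and transcribed, then taken through a single in vitro selection round in triplicate. Selection involved annealing to a biotinylated primer, the partner subunit and triplets, incubation frozen at −7 °C, gel excision of extended constructs, capture on streptavidin beads and RT-PCR. Genotypes were retained after Illumina sequencing of inputs and outputs only with ≥10 input reads and ≥1 read in each output. Fitness is defined as the logarithm of a genotype's enrichment relative to wild-type enrichment, using inverse-variance-weighted averages across replicates, with the logarithm taken to base 2.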

Variant | polymerase ribozyme fitness (log ratio)
GGAUCUUCUCGAUCUAACAAAAAAGACAAAUCUGACACAAAGCUUGAGAGCAUCUUCGGAUGCAGAGGCGGCAGCCUUGGGUGGCGCGAUAGCGCCAACGUUCUCAACUAUGACACGCAAAACGCGUGCUCCGUUGAAUGGAGUUUAUCAAG [C35A C79G U151A] | ≤ -4.2
GGAUCUUCUCGAUCUAACAAAAAAGACAAAUCUGACACAAAGCUUGAGAGCAUCUUCGGAUGCAGAGGCGGCAGCCUUCGGUGGCGCGAUAGCACCAACGUUCUCAACUAUGACACGCAAAACGCGUGCUCCGUUGAAUGGAGUUUAUCAUG [C35A G94A] | -3.56
GGAUCUUCUCGAUCUAACAAAAAAGACAAAUCUGACACAAAGCUUGAGAGCAUCUUCGGAUGCAGAGGCGGCAGCCUUCGGUGGCGCGAUAGCCCCAACGUUCUCAACUAUGACACGCAAAACGCGUGCUCCGUUGAAUGGAGUUUAUCAUG [C35A G94C] | -2.74
GGAUCUUCUCGAUCUAACAAAAAAGACAAAUCUGACACAAAGCUUGAGAGCAUCUUCGGAUGCAGAGGCGGCAGCCUUCGGUGGAGCGAUAGCGCCAACGUUCUCAACUAUGACACGCAAAACGCGUGCUCCGUUGAAUGGAGUUUAUCAUG [C35A C85A] | -3.65
GGAUCUUCUCGAUCUAACAAAAAAGACAAAUCUGACACAAAGCAUGAGAGCAUCUUCGGAUGUAGAGGCAGCAGCCUUCCGUGGCGGGAUAGCGCCAACGUUCUCAACUAUGACACGCAAAACGCGUGCUCCGUUGAAUGGAGUUUAUCAUG [C35A U44A C63U G70A G80C C87G] | ≤ -4.2
GGAUCUUCUCGAUCUAACAAAAAAGACAAAUCUGACACAAAGCUUGAGAGCAUCUUCGGAUGCAGAGGCGGCAACCUUCGGUGGCGCGAUAGCGCCAACGUUCUCAACUAUGACACGCAAAACGCGUGCUCCGUUGAAUGGAGGUUAUGAUG [C35A G74A U144G C149G] | ≤ -4.2
GGAUCUUCUCGAUCUAACAAAAAAGACAAAUCUGACACAAAGCUUGAGAGCAUCUUCGGAUGCAGAGGCGGCAGCCUUCGGUGGCGCGAUAGCGGCAACGUUCUCAACUAUGACACGCAAAACGCGUGCUCCGUUGAAUGGAGUUUAUCAUG [C35A C95G] | -4.1
GGAUCUUCUCGAUCUAACAAAAAAGACAAAUCUGACACAAAGCUUGAGAGCAUCUUCGGAAGCAGAGGCGGCAGCCUUCGGUGGCGCGAUAGCGCCAACGUUGCCAACUAUGACAUGCAAAACGCGUGCUCCGUUGAAUGGAGUUUAUCAUG [C35A U61A C103G U104C C116U] | ≤ -4.2
GGAUCUUCUCGAUCUAACAAAAAAGACAAAUCUGGCACAAAGCUUGCGAGCAUCUUCGGAUGCAGAGGGGGCAGCCGUCGGCGGCGCGAUAGCGCCAACGUUGUCAACUAUGACACGCAAAACGCGUUCGCCGUUGAAUGGAGUUUAUCACG [C35G A47C C69G U77G U82C C103G G128U U130G U151C] | ≤ -4.2
GGAUCUUCUCGAUCUAACAAAAAAGACAAAUCUGGCACCAAGCUUGAGAGCAUCUUCGGAUGCAGAGGCGGCAGCCUUCGGCGGCGCGAUAGCGCCAACGUUCUCAACUAUGACAUGCAAAACGGGUGCUCCAUUGAAUGGAGUUUAUCAUG [C35G A39C U82C C116U C125G G133A] | ≤ -4.2
GGAUCUUCUCGAUCUAACAAAAAAGACAAAUCUGACACAAAGCUUGAGAGCAUCUUCGGAUGCAGAGGCGGCAGCCUUCGGUGGCGCGAAAGCGCCAACGUUCUCAACUACGACACGCAAAACGCGUGCUCCGUUGCAUGGAGUUUAUCAUG [C35A U90A U111C A137C] | ≤ -4.2
GGAUCUUCUCGAUCUAACAAAAAAGACAAAUCUGACACAAAGCUUGAGAGCAUCUUCGGAUGCAGAGGCGGCAGCCCUCGGUAGCGCGAUAGCGCCAACGUUCUCCACUAUGACACGCAAAACGCAUGCUCCGGUGAAUGGAGUUUAUCAUG [C35A U77C G83A A106C G126A U134G] | ≤ -4.2
GGAUCUUCUCGAUCUAACAAAAAAGACAAAUCUGACACAAAGCUUGAGAGCAUCUUCGGAUGCAGAGGCGGCAGCCUUCGUUGGCGCGAUAGCGCCUUCGUUCUCAACUAUGACACGCAAAACGCGUGCUCCGUUGAAUGGAGUUUAUCAUG [C35A G81U A97U A98U] | -3.76
GGAUCUUCUCGAUCUAACAAAAAAGACAAAUCUGACACAAAGCUUGAGAGCAACUUCGGAACCGGCGGCGGCAGCCUUCGGUGGCGGGAUAGCGCCAACGUUCUCAACUAUGACACGCAAAACGCGUGCUCCGUUGAAUGGAGUUUAUCAUU [C35A U53A U61A G62C A64G A66C C87G G152U] | ≤ -4.2
GGAUCUUCUCGAUCUAACAAAAAAGACAAAUCUGACACAAAGCUUGAGAGCAUCUUCGGAUGCAGAGGCAGCAGCCUUCGGUGGCGCGGUAACGCCAACGUUCUCAACUAUGACACGCAAAACGCGUGCUCCGUUGAAUGGAGUUUAUCAUG [C35A G70A A89G G92A] | ≤ -4.2
GGAUCUUCUCGAUCUAACAAAAAAGACAAAUCUGACACAAAGCUUGAGAGCAUCUUCGGAUGCAUAGGCGGCAGCCUUCGGUAGCGCGAUAGCGCCAACGUUCUCAACUAUGACACGCAAAACGCGUGCUCCGUUGAAUUGAGUUUAUCAUG [C35A G65U G83A G140U] | ≤ -4.2
GGAUCUUCUCGAUCUAACAAAAAAGACAAAUCUGACACAAAGCUUGAGAGCAUCUUCGGAUGCAGAUGCGGCAGCCUUCGGUGGCGCGAUAGCUCCAACGUUCUCAACUAUGACACGCAAAACGCGUGCUCCGUUGAAUGGAGUUUAUCAUG [C35A G67U G94U] | ≤ -4.2
GGAUCUUCUCGAUCUAACAAAAAAGACAAAUCUGACACAAAGCUUGAGAUCAUCUUCGGAUGCAGAGGAGGCAACCUUCGGUGGCGCGAUAGCGCCAACGUUCUCAACUAUGACACGCAAAACGCGUGCUCCGUUGAAUGGAGUUUAUCAUG [C35A G50U C69A G74A] | ≤ -4.2
GGAUCUUCUCGAUCUAACAAAAAAGACAAAUCUGACACAAAGCUUGAGAGCAUCUUCGGAUGCAGAGGCGGCAGCCUUCGGUGGCGCGAUAGCGCCAACAUUCUCAACUAUGACACGCAAAACGGGUGCUGCGUUGAAUGGAGUUUAUCAUG [C35A G100A C125G C131G] | ≤ -4.2
